In assay [1] the target is 1G4 TCR, wild type (TCRαβ with HA-tagged β). Nature of the assay: co-IP.
Assay [2] concerns the target 1G4 TCR carrying βA291 (TCRαβ with HA-tagged β Y291A). Briefly: co-IP.
Assay [3] addresses QM-α TCR (1G4 variant with mutations in αCDR2, βCDR2 and βCDR3; TCRαβ with HA-tagged β). Briefly: pull-down.

Take “CD3ζ carrying ζA38 (I38A), expressed in J76-1G4WT-ζKO (from UniProt P20963-1 22-164) (natural protein)”: in assay [1], the ζ/β2 ratio against ζWT (ratio, ζWT = 1) stood at 0.05. On to “CD3ζ carrying ζA41 (I41A), expressed in J76-1G4WT-ζKO (from UniProt P20963-1 22-164) (natural protein)”, for which the ζ/β2 ratio against ζWT (ratio, ζWT = 1) in assay [1] came out at 0.25. Turning to “CD3ε, endogenous in J76 Jurkat cells (from UniProt P07766 23-207) (natural protein)”, the ε/βT ratio against 1G4-WT (ratio, 1G4-WT = 1) in assay [2] came out at 0.5. For “CD3γ, endogenous in J76 Jurkat cells (from UniProt P09693 23-182) (natural protein)”, in assay [2], the reduction of recovery (γ/βT) against 1G4-WT amounted to 40%. Turning to “CD3ζ (ζζ dimer), endogenous in J76 Jurkat cells (from UniProt P20963-1 22-164) (natural protein)”, the ζ/β2 ratio against 1G4-WT (ratio, 1G4-WT = 1) in assay [2] was determined as 0.2. The reduction of ζ/β2 ratio, (9V-A2)4-His-bound against unliganded QM-α in assay [3] came to 40%. The substance “CD3δ, endogenous in J76 Jurkat cells (from UniProt P04234 22-171) (natural protein)” registered a reduction of recovery (δ/βT) against 1G4-WT in assay [2] of 10%.
